Laboratory results: the supplement of paper PMC7125110
± gives the standard error. For some of these results: Variants at the floor of the assay were thinned out.

B1: glmS ribozyme (parent)
chain: AUAAAAGCGCCAGAACUACAGAAAUGUAGUUGACGAGGAGGAGGUUUAUCGAAUUUUCGGCGGAUGCCUCCAAA

Legend:
Settings in all cases: with glucosamine-6-phosphate
[1] = variants of: B1; assay: kcat; higher = faster cleavage; RNA array
Summary of the method: (§1)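 Over ~14 h at 37 °C, tiles were imaged as glucosamine-6-phosphate (40 μM to 10 mM) in HEPES/KCl/Mg(OAc)2 buffer flowed across sequenced MiSeq chips. The chips carried barcoded ribozyme variants transcribed in situ by E. coli RNA polymerase and tracked with a hybridised Cy3 probe. After normalisation to baseline and to non-cleaving reference variants, one- or two-exponential decay fits of per-tile medians gave kobs. kcat and KM followed from weighted Michaelis–Menten fits across concentrations.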

[2] = variants of: B1; assay: self-cleavage kobs at 10000 uM GlcN6P; higher = faster cleavage; RNA array
Summary of the method: as §1

[3] = variants of: B1; assay: self-cleavage kobs at 640 uM GlcN6P; higher = faster cleavage; RNA array
Summary of the method: as §1

[4] = variants of: B1; assay: self-cleavage kobs at 2500 uM GlcN6P; higher = faster cleavage; RNA array
Summary of the method: as §1

[5] = variants of: B1; assay: KM; higher = weaker cofactor use; RNA array
Summary of the method: as §1

[6] = variants of: B1; assay: self-cleavage kobs at 40 uM GlcN6P; higher = faster cleavage; RNA array
Summary of the method: as §1

[7] = variants of: B1; assay: self-cleavage kobs at 160 uM GlcN6P; higher = faster cleavage; RNA array
Summary of the method: as §1

C10U U55A
kcat [1]: 1.86e-05 ± 2.2e-06 s⁻¹ | self-cleavage kobs at 10000 uM GlcN6P [2]: 1.77e-05 ± 7.8e-06 s⁻¹

G13U G32C
kcat [1]: 0.000465 ± 0.00015 s⁻¹ | self-cleavage kobs at 640 uM GlcN6P [3]: 7.27e-05 ± 1e-05 s⁻¹ | self-cleavage kobs at 2500 uM GlcN6P [4]: 0.000121 ± 1.6e-05 s⁻¹ | self-cleavage kobs at 10000 uM GlcN6P [2]: 0.000328 ± 2.8e-05 s⁻¹

A39G
kcat [1]: 0.0923 ± 0.019 s⁻¹ | KM [5]: 2540 ± 580 µM | self-cleavage kobs at 40 uM GlcN6P [6]: 0.00154 ± 3.7e-05 s⁻¹ | self-cleavage kobs at 160 uM GlcN6P [7]: 0.00433 ± 0.00024 s⁻¹ | self-cleavage kobs at 640 uM GlcN6P [3]: 0.0174 ± 0.0013 s⁻¹ | self-cleavage kobs at 2500 uM GlcN6P [4]: 0.0472 ± 0.0047 s⁻¹ | self-cleavage kobs at 10000 uM GlcN6P [2]: 0.075 ± 0.0037 s⁻¹

A14U G29A
kcat [1]: 0.00088 ± 5.1e-05 s⁻¹ | KM [5]: 3420 ± 290 µM | self-cleavage kobs at 160 uM GlcN6P [7]: 4.16e-05 ± 1e-05 s⁻¹ | self-cleavage kobs at 640 uM GlcN6P [3]: 0.000137 ± 1.7e-05 s⁻¹ | self-cleavage kobs at 2500 uM GlcN6P [4]: 0.000368 ± 5.1e-05 s⁻¹ | self-cleavage kobs at 10000 uM GlcN6P [2]: 0.000665 ± 0.00011 s⁻¹

G13U U30G
kcat [1]: 0.000187 ± 3.9e-05 s⁻¹ | KM [5]: 2660 ± 1200 µM | self-cleavage kobs at 640 uM GlcN6P [3]: 2.49e-05 ± 9.4e-06 s⁻¹ | self-cleavage kobs at 2500 uM GlcN6P [4]: 0.000105 ± 1.2e-05 s⁻¹ | self-cleavage kobs at 10000 uM GlcN6P [2]: 0.000136 ± 2e-05 s⁻¹

C11A A15G
kcat [1]: 0.000255 ± 2.9e-05 s⁻¹ | KM [5]: 1280 ± 310 µM | self-cleavage kobs at 160 uM GlcN6P [7]: 3.04e-05 ± 1.5e-05 s⁻¹ | self-cleavage kobs at 640 uM GlcN6P [3]: 8.86e-05 ± 1e-05 s⁻¹ | self-cleavage kobs at 2500 uM GlcN6P [4]: 0.000149 ± 1.9e-05 s⁻¹ | self-cleavage kobs at 10000 uM GlcN6P [2]: 0.000251 ± 3.3e-05 s⁻¹

A14G G66U
kcat [1]: 0.00542 ± 0.00096 s⁻¹ | KM [5]: 2220 ± 560 µM | self-cleavage kobs at 40 uM GlcN6P [6]: 0.000114 ± 1.2e-05 s⁻¹ | self-cleavage kobs at 160 uM GlcN6P [7]: 0.00039 ± 4e-05 s⁻¹ | self-cleavage kobs at 640 uM GlcN6P [3]: 0.00094 ± 0.00012 s⁻¹ | self-cleavage kobs at 2500 uM GlcN6P [4]: 0.00287 ± 0.00033 s⁻¹ | self-cleavage kobs at 10000 uM GlcN6P [2]: 0.00464 ± 0.0004 s⁻¹

G38U U47G
kcat [1]: < 1e-05 s⁻¹ | self-cleavage kobs at 40 uM GlcN6P [6]: < 1e-05 s⁻¹

A14C A39C
kcat [1]: 0.000549 ± 0.00015 s⁻¹ | KM [5]: 4660 ± 2000 µM | self-cleavage kobs at 640 uM GlcN6P [3]: 5.77e-05 ± 9.6e-06 s⁻¹ | self-cleavage kobs at 2500 uM GlcN6P [4]: 0.000254 ± 3.3e-05 s⁻¹ | self-cleavage kobs at 10000 uM GlcN6P [2]: 0.000346 ± 4.9e-05 s⁻¹

A6G U69A
kcat [1]: < 1e-05 s⁻¹ | self-cleavage kobs at 160 uM GlcN6P [7]: < 1e-05 s⁻¹ | self-cleavage kobs at 10000 uM GlcN6P [2]: < 1e-05 s⁻¹

G40U U69C
kcat [1]: 8.37e-05 ± 1.1e-05 s⁻¹ | self-cleavage kobs at 640 uM GlcN6P [3]: 6.56e-05 ± 2e-05 s⁻¹ | self-cleavage kobs at 2500 uM GlcN6P [4]: 9.26e-05 ± 1.9e-05 s⁻¹ | self-cleavage kobs at 10000 uM GlcN6P [2]: 7.39e-05 ± 1.2e-05 s⁻¹

A14U G32U
kcat [1]: 0.000874 ± 0.00012 s⁻¹ | KM [5]: 3050 ± 730 µM | self-cleavage kobs at 160 uM GlcN6P [7]: 7.67e-05 ± 1.7e-05 s⁻¹ | self-cleavage kobs at 640 uM GlcN6P [3]: 0.000142 ± 1.2e-05 s⁻¹ | self-cleavage kobs at 2500 uM GlcN6P [4]: 0.000422 ± 4e-05 s⁻¹ | self-cleavage kobs at 10000 uM GlcN6P [2]: 0.00066 ± 5.2e-05 s⁻¹

G51U C68G
kcat [1]: 4.24e-05 ± 1.1e-05 s⁻¹ | self-cleavage kobs at 640 uM GlcN6P [3]: 5.2e-05 ± 9.7e-06 s⁻¹ | self-cleavage kobs at 2500 uM GlcN6P [4]: 4.27e-05 ± 1e-05 s⁻¹

A36U U45A C50G
kcat [1]: < 1e-05 s⁻¹ | self-cleavage kobs at 640 uM GlcN6P [3]: < 1e-05 s⁻¹ | self-cleavage kobs at 2500 uM GlcN6P [4]: < 1e-05 s⁻¹

U46G G66U
kcat [1]: 0.000756 ± 0.00014 s⁻¹ | KM [5]: 2360 ± 740 µM | self-cleavage kobs at 160 uM GlcN6P [7]: 3.38e-05 ± 1.2e-05 s⁻¹ | self-cleavage kobs at 640 uM GlcN6P [3]: 0.000177 ± 2.9e-05 s⁻¹ | self-cleavage kobs at 2500 uM GlcN6P [4]: 0.000448 ± 8e-05 s⁻¹ | self-cleavage kobs at 10000 uM GlcN6P [2]: 0.000578 ± 8.8e-05 s⁻¹

A12C C50G G66C
kcat [1]: 0.000103 ± 2.8e-05 s⁻¹ | self-cleavage kobs at 160 uM GlcN6P [7]: 0.00011 ± 3.2e-05 s⁻¹ | self-cleavage kobs at 640 uM GlcN6P [3]: 7.92e-05 ± 2.3e-05 s⁻¹ | self-cleavage kobs at 2500 uM GlcN6P [4]: 0.000103 ± 2.6e-05 s⁻¹
